What is called Kd is the equilibrium constant for the complex coming apart. Read a high Kd as a looser complex.

The target of experiment [1] is HLA-DR1 with a His→Asn substitution at position β81 (human).
Experiment [2] has the same target. Description: fluorescence polarisation. (In general: Polarisation of emitted light reports the rotation of a fluorescent probe.)

“HA peptide P1 L (from UniProt P03437 322-334)” returned a Kd in experiment [1] of 67.9 nM. On the same count and under the same terms, in the case of “HA peptide P1 V (from UniProt P03437 322-334)” it was 89.4 nM; in that of “HA peptide P1,9 LA (from UniProt P03437 322-334)”, 206 nM. “HA peptide P1,9 LS (from UniProt P03437 322-334)”: in experiment [1], the Kd is 1880 nM. Same read-out and setting: with “HA peptide P1,9 VA (from UniProt P03437 322-334)” the figure was 739 nM; with “HA peptide P1,9 VS (from UniProt P03437 322-334)”, 8170 nM; with “HA peptide P9 A (from UniProt P03437 322-334)”, 126 nM.

Consider “HA peptide P9 S (from UniProt P03437 322-334)”, for which the Kd in experiment [1] turned out to be 130 nM. This Kd and that of the substance before are within 1.5-fold of each other. Substance “fluorescein-labelled HA peptide P1 L (from UniProt P03437 322-334)” came in with a t1/2 in experiment [2] of 55.6 h. Take “fluorescein-labelled HA peptide P1 V (from UniProt P03437 322-334)”: the t1/2 in experiment [2] came to 47.9 h. On the same count and under the same terms, with “fluorescein-labelled HA peptide P1,9 LA (from UniProt P03437 322-334)” the figure was 34 h. The same measure, in the same setting: with “fluorescein-labelled HA peptide P1,9 LS (from UniProt P03437 322-334)” the figure was 5.93 h. The same measure, in the same setting: with “fluorescein-labelled HA peptide P1,9 VA (from UniProt P03437 322-334)” the figure was 14.4 h; with “fluorescein-labelled HA peptide P1,9 VS (from UniProt P03437 322-334)”, 1.65 h; with “fluorescein-labelled HA peptide P9 A (from UniProt P03437 322-334)”, 43.6 h.

Regarding “fluorescein-labelled HA peptide P9 S (from UniProt P03437 322-334)”, in experiment [2], the t1/2 came to 19.3 h.

Values taken from paper PMC3349339 (Journal of Molecular Biology, 2012).
